Here are results for 1 substance from publication PMC2194224.

The target in this experiment is purified M22 (Sir22) protein (Streptococcus pyogenes). The experiment is described as follows: radioligand binding.

For “human C4b-binding protein (C4BP) (from UniProt P04003 49-597; P20851 18-252) (complex)”, the percent of radiolabeled ligand bound in the absence of antiserum is 25%.
